# According to patent publication US20050276799A1 (PDL BIOPHARMA, published 2005):
# Where two headings read alike, the source gives them in different places.
# B1: Hu1D10-IgG3 wild-type (antibody)
# heavy: QVQLQESGPGLVKPSETLSLTCTVSGFSLTNYGVHWVRQSPGKGLEWIGVKWSGGSTEYNAAFISRLTISKDTSKNQVSLKLNSLTAADTAVYYCARNDRYAMDYWGQGTLVTVSSASTKGPSVFPLAPCSRSTSGGTAALGCLVKDYFPEPVTVSWNSGALTSGVHTFPAVLQSSGLYSLSSVVTVPSSSLGTQTYTCNVNHKPSNTKVDKRVELKTPLGDTTHTCPRCPEPKSCDTPPPCPRCPEPKSCDTPPPCPRCPEPKSCDTPPPCPRCPAPELLGGPSVFLFPPKPKDTLMISRTPEVTCVVVDVSHEDPEVQFKWYVDGVEVHNAKTKLREEQYNSTFRVVSVLTVLHQDWLNGKEYKCKVSNKALPAPIEKTISKAKGQPREPQVYTLPPSREEMTKNQVSLTCLVKGFYPSDIAVEWESNGQPENNYNTTPPMLDSDGSFFLYSKLTVDKSRWQQGNIFSCSVMHEALHNRYTQKSLSLSPGK
# light: DIQMTQSPSSLSASVGDRVTITCRASENIYSYLAWYQQKPGKAPKLLVSNAKTLAEGVPSRFSGSGSGKQFTLTISSLQPEDFATYYCQHHYGNSYPFGQGTKLEIKRTVAAPSVFIFPPSDEQLKSGTASVVCLLNNFYPREAKVQWKVDNALQSGNSQESVTEQDSKDSTYSLSSTLTLSKADYEKHKVYACEVTHQGLSSPVTKSFNRGEC
# B2: Hu1D10-IgG3 M428L (antibody)
# heavy: QVQLQESGPGLVKPSETLSLTCTVSGFSLTNYGVHWVRQSPGKGLEWIGVKWSGGSTEYNAAFISRLTISKDTSKNQVSLKLNSLTAADTAVYYCARNDRYAMDYWGQGTLVTVSSASTKGPSVFPLAPCSRSTSGGTAALGCLVKDYFPEPVTVSWNSGALTSGVHTFPAVLQSSGLYSLSSVVTVPSSSLGTQTYTCNVNHKPSNTKVDKRVELKTPLGDTTHTCPRCPEPKSCDTPPPCPRCPEPKSCDTPPPCPRCPEPKSCDTPPPCPRCPAPELLGGPSVFLFPPKPKDTLMISRTPEVTCVVVDVSHEDPEVQFKWYVDGVEVHNAKTKLREEQYNSTFRVVSVLTVLHQDWLNGKEYKCKVSNKALPAPIEKTISKAKGQPREPQVYTLPPSREEMTKNQVSLTCLVKGFYPSDIAVEWESNGQPENNYNTTPPMLDSDGSFFLYSKLTVDKSRWQQGNIFSCSVLHEALHNRYTQKSLSLSPGK
# light: DIQMTQSPSSLSASVGDRVTITCRASENIYSYLAWYQQKPGKAPKLLVSNAKTLAEGVPSRFSGSGSGKQFTLTISSLQPEDFATYYCQHHYGNSYPFGQGTKLEIKRTVAAPSVFIFPPSDEQLKSGTASVVCLLNNFYPREAKVQWKVDNALQSGNSQESVTEQDSKDSTYSLSSTLTLSKADYEKHKVYACEVTHQGLSSPVTKSFNRGEC
# B3: Hu1D10-IgG4 M428L (antibody)
# heavy: not shown
# light: DIQMTQSPSSLSASVGDRVTITCRASENIYSYLAWYQQKPGKAPKLLVSNAKTLAEGVPSRFSGSGSGKQFTLTISSLQPEDFATYYCQHHYGNSYPFGQGTKLEIKRTVAAPSVFIFPPSDEQLKSGTASVVCLLNNFYPREAKVQWKVDNALQSGNSQESVTEQDSKDSTYSLSSTLTLSKADYEKHKVYACEVTHQGLSSPVTKSFNRGEC
# B4: Hu1D10-IgG4 T250Q/M428L (antibody)
# heavy: not shown
# light: DIQMTQSPSSLSASVGDRVTITCRASENIYSYLAWYQQKPGKAPKLLVSNAKTLAEGVPSRFSGSGSGKQFTLTISSLQPEDFATYYCQHHYGNSYPFGQGTKLEIKRTVAAPSVFIFPPSDEQLKSGTASVVCLLNNFYPREAKVQWKVDNALQSGNSQESVTEQDSKDSTYSLSSTLTLSKADYEKHKVYACEVTHQGLSSPVTKSFNRGEC
# B5: HuM291-IgG2M3 wild-type (visilizumab) (antibody)
# heavy: QVQLVQSGAEVKKPGASVKVSCKASGYTFISYTMHWVRQAPGQGLEWMGYINPRSGYTHYNQKLKDKATLTADKSASTAYMELSSLRSEDTAVYYCARSAYYDYDGFAYWGQGTLVTVSSASTKGPSVFPLAPCSRSTSESTAALGCLVKDYFPEPVTVSWNSGALTSGVHTFPAVLQSSGLYSLSSVVTVPSSNFGTQTYTCNVDHKPSNTKVDKTVERKCCVECPPCPAPPAAAPSVFLFPPKPKDTLMISRTPEVTCVVVDVSHEDPEVQFNWYVDGVEVHNAKTKPREEQFNSTFRVVSVLTVVHQDWLNGKEYKCKVSNKGLPAPIEKTISKTKGQPREPQVYTLPPSREEMTKNQVSLTCLVKGFYPSDIAVEWESNGQPENNYKTTPPMLDSDGSFFLYSKLTVDKSRWQQGNVFSCSVMHEALHNHYTQKSLSLSPSK
# light: DIQMTQSPSSLSASVGDRVTITCSASSSVSYMNWYQQKPGKAPKRLIYDTSKLASGVPSRFSGSGSGTDFTLTISSLQPEDFATYYCQQWSSNPPTFGGGTKVEIKRTVAAPSVFIFPPSDEQLKSGTASVVCLLNNFYPREAKVQWKVDNALQSGNSQESVTEQDSKDSTYSLSSTLTLSKADYEKHKVYACEVTHQGLSSPVTKSFNRGEC
# notes: Humanized anti-CD3; also called HuM291-IgG2M3 WT; Nuvion
# B6: HuM291-IgG2M3 T250Q/M428L (antibody)
# heavy: QVQLVQSGAEVKKPGASVKVSCKASGYTFISYTMHWVRQAPGQGLEWMGYINPRSGYTHYNQKLKDKATLTADKSASTAYMELSSLRSEDTAVYYCARSAYYDYDGFAYWGQGTLVTVSSASTKGPSVFPLAPCSRSTSESTAALGCLVKDYFPEPVTVSWNSGALTSGVHTFPAVLQSSGLYSLSSVVTVPSSNFGTQTYTCNVDHKPSNTKVDKTVERKCCVECPPCPAPPAAAPSVFLFPPKPKDQLMISRTPEVTCVVVDVSHEDPEVQFNWYVDGVEVHNAKTKPREEQFNSTFRVVSVLTVVHQDWLNGKEYKCKVSNKGLPAPIEKTISKTKGQPREPQVYTLPPSREEMTKNQVSLTCLVKGFYPSDIAVEWESNGQPENNYKTTPPMLDSDGSFFLYSKLTVDKSRWQQGNVFSCSVLHEALHNHYTQKSLSLSPSK
# light: DIQMTQSPSSLSASVGDRVTITCSASSSVSYMNWYQQKPGKAPKRLIYDTSKLASGVPSRFSGSGSGTDFTLTISSLQPEDFATYYCQQWSSNPPTFGGGTKVEIKRTVAAPSVFIFPPSDEQLKSGTASVVCLLNNFYPREAKVQWKVDNALQSGNSQESVTEQDSKDSTYSLSSTLTLSKADYEKHKVYACEVTHQGLSSPVTKSFNRGEC
# B7: M200-IgG4 wild-type (volociximab) (antibody)
# heavy: not shown
# light: QIVLTQSPAIMSASLGERVTMTCTASSSVSSNYLHWYQQKPGSAPNLWIYSTSNLASGVPARFSGSGSGTSYSLTISSMEAEDAATYYCHQYLRSPPTFGGGTKLEIKRTVAAPSVFIFPPSDEQLKSGTASVVCLLNNFYPREAKVQWKVDNALQSGNSQESVTEQDSKDSTYSLSSTLTLSKADYEKHKVYACEVTHQGLSSPVTKSFNRGEC
# notes: Chimeric anti-α5β1 integrin; also called M200-IgG4 WT
# B8: M200-IgG4 T250Q/M428L (antibody)
# heavy: not shown
# light: QIVLTQSPAIMSASLGERVTMTCTASSSVSSNYLHWYQQKPGSAPNLWIYSTSNLASGVPARFSGSGSGTSYSLTISSMEAEDAATYYCHQYLRSPPTFGGGTKLEIKRTVAAPSVFIFPPSDEQLKSGTASVVCLLNNFYPREAKVQWKVDNALQSGNSQESVTEQDSKDSTYSLSSTLTLSKADYEKHKVYACEVTHQGLSSPVTKSFNRGEC
# B9: OST577-IgG1 T250D (antibody)
# heavy: not shown
# light: SYVLTQPPSVSVAPGQTARITCGGDNIGSKSVNWFQQKPGQAPVLVVYDDNERPSGISERFSGSNSGNTATLTISRVEAGDEADYYCQVWDSSSDHVVFGGGTKLTVLGQPKAAPSVTLFPPSSEELQANKATLVCLISDFYPGAVTVAWKADSSPVKAGVETTTPSKQSNNKYAASSYLSLTPEQWKSHRSYSCQVTHEGSTVEKTVAPTECS
# Assays:
# [1] = target: T1, recombinant, GPI-linked human FcRn on cell line NS0 HuFcRn (memb), clone 7-3 (human, UniProt P55899 24-297; P61769 21-119); test: IC50 of wild-type / IC50 of this antibody, same assay
# T1 construct: Expressed from pDL208 on the surface of NS0 cells; also called human neonatal Fc receptor; not shown: human c-myc decapeptide flanked by linker peptides, then GPI linkage signal of human decay accelerating factor (vector p)
# [2] = target: T2, recombinant, GPI-linked rhesus FcRn on cell line NS0 RhFcRn, clone R-3 (rhesus, UniProt H9Z6D2 24-297; Q6V7J5 21-119, GPI-linked); test: as above
# T2 construct: Expressed from pDL410 on the surface of NS0 cells; not shown: human c-myc decapeptide flanked by linker peptides, then GPI linkage signal of human decay accelerating factor (vector p)
# [3] = target: T1, recombinant, GPI-linked human FcRn on …; test: competition FACS vs biotinylated human IgG on NS0 cells expressing human FcRn, FBB pH 6.0
# [4] = target: T2, recombinant, GPI-linked rhesus FcRn on …; test: competition FACS vs biotinylated human IgG on NS0 cells expressing rhesus FcRn, FBB pH 6.0
# [5] = target: T1, recombinant, GPI-linked human FcRn on …; test: competition FACS vs biotinylated human IgG on NS0 cells expressing human FcRn, FBB pH 6.0; remark: listed apart in the source
# [6] = target: T2, recombinant, GPI-linked rhesus FcRn on …; test: competition FACS vs biotinylated human IgG on NS0 cells expressing rhesus FcRn, FBB pH 6.0; remark: listed apart in the source
# [7] = target: T1, recombinant, GPI-linked human FcRn on …; test: IC50 of wild-type / IC50 of this antibody, same assay; remark: listed apart in the source
# [8] = target: T2, recombinant, GPI-linked rhesus FcRn on …; test: as above; remark: listed apart in the source
# [9] = target: T1, recombinant, GPI-linked human FcRn on …; test: as above; remark: listed apart in the source
# [10] = target: T1, recombinant, GPI-linked human FcRn on …; test: competition FACS vs biotinylated human IgG on NS0 cells expressing human FcRn, FBB pH 6.0; remark: listed apart in the source
# [11] = target: T1, recombinant, GPI-linked human FcRn on …; test: as above; remark: listed apart in the source
# [12] = target: T1, recombinant, GPI-linked human FcRn on …; test: IC50 of wild-type / IC50 of this antibody, same assay; remark: listed apart in the source
# [13] = target: T1, recombinant, GPI-linked human FcRn on …; test: pH-dependent binding and release FACS on NS0 cells expressing human FcRn (FIG. 15B)
binder,measurement,setting,value
B1,Relative Binding,[1],1 ratio
same,Relative Binding,[2],1 ratio
B2,Relative Binding,[1],6.3 ratio
same,Relative Binding,[2],4.6 ratio
same,IC50,[3],2.29 µg/mL
same,IC50,[4],3.03 µg/mL
B3,IC50,[5],5.03 µg/mL
same,IC50,[6],6.64 µg/mL
same,Relative Binding,[7],15 ratio
same,Relative Binding,[8],15 ratio
B4,IC50,[5],1.07 µg/mL
same,IC50,[6],1.27 µg/mL
same,Relative Binding,[7],71 ratio
same,Relative Binding,[8],77 ratio
B5,Relative Binding,[9],1 ratio
same,IC50,[10],42.2 µg/mL
B6,Relative Binding,[9],42 ratio
same,IC50,[10],0.994 µg/mL
B7,IC50,[11],34.7 µg/mL
same,Relative Binding,[12],1 ratio
B8,IC50,[11],1 µg/mL
same,Relative Binding,[12],35 ratio
B9,binding result,[13],binds
